Source: the supplement of paper PMC11316812
± gives the standard deviation of the averaged measurements.

Tests used:
hTERT-HMEC = assay: percentage of EdU-negative (G0-arrested) nuclei per well, 72 h; higher = more G0 arrest; settings: reference: sequence is the full UniProt precursor, the tested protein was the secreted form or ectodomain
MCF7 = assay: as above; settings: reference: sequence is the full UniProt precursor, the tested protein was the secreted form or ectodomain
[1] = protein concentration 0.03125 µM
[2] = protein concentration 0.3125 µM
[3] = protein concentration 0.0165575 µM
[4] = protein concentration 0.165575 µM
[5] = protein concentration 0.0225 µM
[6] = protein concentration 0.01425 µM
[7] = protein concentration 0.1425 µM
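Note: secreted proteins added to cultured cells, EdU pulse at the end, nuclei found by Hoechst imaging, EdU status from nuclear versus surrounding ring intensity ratio, PBS as neutral control.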

Sequence: MGLLLPLALCILVLCCGAMSPPQLALNPSALLSRGCNDSDVLAVAGFALRDINKDRKDGYVLRLNRVNDAQEYRRGGLGSLFYLTLDVLETDCHVLRKKAWQDCGMRIFFESVYGQCKAIFYMNNPSRVLYLAAYNCTLRPVSKKKIYMTCPDCPSSIPTDSSNHQVLEAATESLAKYNNENTSKQYSLFKVTRASSQWVVGPSYFVEYLIKESPCTKSQASSCSLQSSDSVPVGLCKGSLTRTHWEKFVSVTCDFFESQAPATGSENSAVNQKPTNLPKVEESQQKNTPPTDSPSKAGPRGSVQYLPDLDDKNSQEKGPQEAFPVHLDLTTNPQGETLDISFLFLEPMEEKLVVLPFPKEKARTAECPGPAQNASPLVLPP [Q9UGM5]
- percentage of EdU-negative (hTERT-HMEC; [1]): 5.24 ± 0.29%
- percentage of EdU-negative (hTERT-HMEC; [2]): 7.43 ± 0.49%
- percentage of EdU-negative (MCF7; [1]): 26.5 ± 2.8%
- percentage of EdU-negative (MCF7; [2]): 27.9 ± 0.97%

Sequence: MGLLSAPPCTQRITWKGLLLTASLLNFWNPPTTAQVTIEAQPTKVSEGKDVLLLVHNLPQNLTGYIWYKGQIRDLYHYITSYVVDGQIIIYGPAYSGRETIYSNASLLIQNVTQEDAGSYTLHIIMGGDENRGVTGHFTFTLYLETPKPSISSSKLNPREAMEAVSLTCDPETPDASYLWWMNGQSLPMSHRLQLSETNRTLFLLGVTKYTAGPYECEIRNPVSASRSDPFTLNLLPKLPKPYITINNLKPRENKDVLNFTCEPKSENYTYIWWLNGQSLPVSPRVKRPIENRILILPSVTRNETGPYQCEIRDQYGGIRSYPVTLNVLYGPDLPRIYPSFTYYRSGEVLYLSCSADSNPPAQYSWTINGKFQLSGQKLFIPQITTKHSGLYACSVRNSATGKESSKSMTVKVSGKRIPVSLAIGI [Q9UQ74]
- percentage of EdU-negative (hTERT-HMEC; [3]): 4.16 ± 0.38%
- percentage of EdU-negative (hTERT-HMEC; [4]): 6.44 ± 0.53%
- percentage of EdU-negative (MCF7; [3]): 26.7 ± 1%
- percentage of EdU-negative (MCF7; [4]): 31.5 ± 1.5%

Sequence: MGLQACLLGLFALILSGKCSYSPEPDQRRTLPPGWVSLGRADPEEELSLTFALRQQNVERLSELVQAVSDPSSPQYGKYLTLENVADLVRPSPLTLHTVQKWLLAAGAQKCHSVITQDFLTCWLSIRQAELLLPGAEFHHYVGGPTETHVVRSPHPYQLPQALAPHVDFVGGLHRFPPTSSLRQRPEPQVTGTVGLHLGVTPSVIRKRYNLTSQDVGSGTSNNSQACAQFLEQYFHDSDLAQFMRLFGGNFAHQASVARVVGQQGRGRAGIEASLDVQYLMSAGANISTWVYSSPGRHEGQEPFLQWLMLLSNESALPHVHTVSYGDDEDSLSSAYIQRVNTELMKAAARGLTLLFASGDSGAGCWSVSGRHQFRPTFPASSPYVTTVGGTSFQEPFLITNEIVDYISGGGFSNVFPRPSYQEEAVTKFLSSSPHLPPSSYFNASGRAYPDVAALSDGYWVVSNRVPIPWVSGTSASTPVFGGILSLINEHRILSGRPPLGFLNPRLYQQHGAGLFDVTRGCHESCLDEEVEGQGFCSGPGWDPVTGWGTPNFPALLKTLLNP
- percentage of EdU-negative (hTERT-HMEC; [5]): 5.11 ± 0.24%
- percentage of EdU-negative (hTERT-HMEC; protein concentration 0.225 µM): 10.72 ± 0.011%
- percentage of EdU-negative (MCF7; [5]): 25.3 ± 1.4%
- percentage of EdU-negative (MCF7; protein concentration 0.225 µM): 27.9 ± 4.2%

Sequence: MGLQTTKWPSHGAFFLKSWLIISLGLYSQVSKLLACPSVCRCDRNFVYCNERSLTSVPLGIPEGVTVLYLHNNQINNAGFPAELHNVQSVHTVYLYGNQLDEFPMNLPKNVRVLHLQENNIQTISRAALAQLLKLEELHLDDNSISTVGVEDGAFREAISLKLLFLSKNHLSSVPVGLPVDLQELRVDENRIAVISDMAFQNLTSLERLIVDGNLLTNKGIAEGTFSHLTKLKEFSIVRNSLSHPPPDLPGTHLIRLYLQDNQINHIPLTAFSNLRKLERLDISNNQLRMLTQGVFDNLSNLKQLTARNNPWFCDCSIKWVTEWLKYIPSSLNVRGFMCQGPEQVRGMAVRELNMNLLSCPTTTPGLPLFTPAPSTASPTTQPPTLSIPNPSRSYTPPTPTTSKLPTIPDWDGRERVTPPISERIQLSIHFVNDTSIQVSWLSLFTVMAYKLTWVKMGHSLVGGIVQERIVSGEKQHLSLVNLEPRSTYRICLVPLDAFNYRAVEDTICSEATTHASYLNNGSNTASSHEQTTSHSMGSPFLLAGLIGGAVIFVLVVLLSVFCWHMHKKGRYTSQKWKYNRGRRKDDYCEAGTKKDNSILEMTETSFQIVSLNNDQLLKGDFRLQPIYTPNGGINYTDCHIPNNMRYCNSSVPDLEHCHT
- percentage of EdU-negative (hTERT-HMEC; [6]): 6.49 ± 1.2%
- percentage of EdU-negative (hTERT-HMEC; [7]): 7.12 ± 0.37%
- percentage of EdU-negative (MCF7; [6]): 22.9 ± 1.9%
- percentage of EdU-negative (MCF7; [7]): 27 ± 0.45%

Sequence: MGLSTVPDLLLPLVLLELLVGIYPSGVIGLVPHLGDREKRDSVCPQGKYIHPQNNSICCTKCHKGTYLYNDCPGPGQDTDCRECESGSFTASENHLRHCLSCSKCRKEMGQVEISSCTVDRDTVCGCRKNQYRHYWSENLFQCFNCSLCLNGTVHLSCQEKQNTVCTCHAGFFLRENECVSCSNCKKSLECTKLCLPQIENVKGTEDSGTTVLLPLVIFFGLCLLSLLFIGLMYRYQRWKSKLYSIVCGKSTPEKEGELEGTTTKPLAPNPSFSPTPGFTPTLGFSPVPSSTFTSSSTYTPGDCPNFAAPRREVAPPYQGADPILATALASDPIPNPLQKWEDSAHKPQSLDTDDPATLYAVVENVPPLRWKEFVRRLGLSDHEIDRLELQNGRCLREAQYSMLATWRRRTPRREATLELLGRVLRDMDLLGCLEDIEEALCGPAALPPAPSLLR
- percentage of EdU-negative (hTERT-HMEC; [1]): 4.76 ± 0.43%
- percentage of EdU-negative (hTERT-HMEC; [2]): 5.34 ± 0.28%
- percentage of EdU-negative (MCF7; [1]): 24.9 ± 3.4%
- percentage of EdU-negative (MCF7; [2]): 25.5 ± 0.84%
